We go through one substance from publication PMC3828642, “1-Aminocyclopropane-1-carboxylic acid oxidase reaction mechanism and putative post-translational activities of the ACCO protein” (AoB Plants, 2013).

One may read the stoichiometry N as a count of units in the complex or per binding partner.

“And” between values parts separate entries of the source, which are not always exact repeats. Equal entries are not always repeated.

The assay has as its target 1-Aminocyclopropane-1-carboxylic acid (ACC) oxidase ACCO1 from apple (Malus domestica), His-Tag fusion protein (apple (Malus domestica)). The assay can be described thus: SEC; Sephadex G-200 column chromatography; activity of the monomer, dimer and tetramer forms; data not shown.

“1-Aminocyclopropane-1-carboxylic acid (ACC) oxidase ACCO1 from apple (Malus domestica), His-Tag fusion protein (enzyme)”: the stoichiometry N was 2 and 4.
